Laboratory results as given in US20250145690A1 (US Dept. of Health and Human Services, published 2025).

T1: HCoV-OC43 spike protein (HCoV-OC43, UniProt P36334 14-1297)
T1 sequence: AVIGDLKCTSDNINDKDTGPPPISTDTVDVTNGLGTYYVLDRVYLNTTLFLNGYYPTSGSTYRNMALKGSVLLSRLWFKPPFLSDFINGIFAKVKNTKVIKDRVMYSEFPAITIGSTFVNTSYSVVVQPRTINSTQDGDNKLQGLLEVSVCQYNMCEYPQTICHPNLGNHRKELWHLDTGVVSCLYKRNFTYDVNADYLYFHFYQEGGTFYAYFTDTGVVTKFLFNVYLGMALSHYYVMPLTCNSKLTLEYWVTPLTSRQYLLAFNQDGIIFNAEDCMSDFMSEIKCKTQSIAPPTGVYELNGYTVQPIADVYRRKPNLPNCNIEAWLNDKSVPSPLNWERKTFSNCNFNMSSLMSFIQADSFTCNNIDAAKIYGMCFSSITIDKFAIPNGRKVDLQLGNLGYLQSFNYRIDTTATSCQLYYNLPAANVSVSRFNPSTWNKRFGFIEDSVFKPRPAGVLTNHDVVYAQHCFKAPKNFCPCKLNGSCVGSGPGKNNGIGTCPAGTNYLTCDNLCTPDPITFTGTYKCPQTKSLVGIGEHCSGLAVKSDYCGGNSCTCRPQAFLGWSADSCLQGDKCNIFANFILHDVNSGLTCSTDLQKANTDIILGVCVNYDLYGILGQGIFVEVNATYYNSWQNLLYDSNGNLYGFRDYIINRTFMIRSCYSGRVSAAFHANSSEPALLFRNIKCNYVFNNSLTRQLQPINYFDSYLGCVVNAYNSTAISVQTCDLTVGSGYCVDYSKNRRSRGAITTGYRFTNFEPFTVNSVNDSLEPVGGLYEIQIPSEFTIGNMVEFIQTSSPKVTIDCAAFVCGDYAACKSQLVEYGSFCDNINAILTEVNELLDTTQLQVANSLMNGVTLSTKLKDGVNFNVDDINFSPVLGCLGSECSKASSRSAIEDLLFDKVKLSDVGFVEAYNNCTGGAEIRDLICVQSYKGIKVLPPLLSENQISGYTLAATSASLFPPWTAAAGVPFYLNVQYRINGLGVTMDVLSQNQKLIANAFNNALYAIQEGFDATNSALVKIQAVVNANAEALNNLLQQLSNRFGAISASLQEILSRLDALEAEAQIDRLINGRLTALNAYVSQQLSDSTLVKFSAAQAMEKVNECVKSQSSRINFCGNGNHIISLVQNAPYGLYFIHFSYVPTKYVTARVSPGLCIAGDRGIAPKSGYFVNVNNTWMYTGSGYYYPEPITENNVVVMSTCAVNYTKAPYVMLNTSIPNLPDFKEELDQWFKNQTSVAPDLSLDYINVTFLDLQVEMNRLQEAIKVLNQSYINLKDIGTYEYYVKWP

B1: COV49-54 (antibody, V domains shown)
VH: EVQLVESGGGLVQPGGSLRLSCAASGFIVSSNYMSWVRQAPGKGLEWVSMIYSGGSTVYADSVKGRFTISRDISKNTLYLQMNSLRAEDTAVYYCALETFDYWGQGTLVTVSS
VL: DIQMTQSPSSLSASVGDRVTITCRASQGITNHLAWYQQKPGKVPKLLIYAASTLQSGVPSRFSGSGYGTDFTLTISSLQPEDVASYYCQKYDSAPRTFGQGTKVEIK
B2: COV23-01 (antibody, V domains shown)
VH: QVTLKESGPVLVKPTETLTLTCTVSGFSLSNTKMGVSWIRQPPGKALEWLAHIFSNDRKSYTTSLKSRLTISEDTSKSQIVLTMTNMDPVDTATYYCARIGAGGTYNFYYYMDVWGKGTTVTVSS
VL: EIVLTQSPATLSLSPGERATLSCRASQSVSSYLAWYQQKPGQAPRLLIYDASNRATGIPARFSGSGSGTDFTLTISSLEPEDFAVYYCQQRSLYYTFGQGTKLEIK

Legend:
[1] = target: T2, SARS-CoV-2 spike S2 subunit, recombinant (SARS-CoV-2, UniProt P0DTC2 686-1213); test: bead flow cytometry, AUC minus CD4
T2 construct: domain: S2 subunit

HCoV-OC43 spike protein = target: T1, HCoV-OC43 spike protein; test: bead flow cytometry, AUC minus CD4

| Binder | binding result [1] | binding result (HCoV-OC43 spike protein) |
| --- | --- | --- |
| B1 | no binding (tested: 200 µg/mL) | – |
| B2 | – | no binding (tested: 200 µg/mL) |
